Values belong to the binder of their own block, whether it stands above or below them.
Experiments:
Recombinant MICB protein = target: T1, Recombinant MICB protein (UniProt Q29980 23-298, limits assumed); assay: ELISA, coated MICB, OD 450 nm
T1 construct: Coated on ELISA plates
T1 sequence (looked up): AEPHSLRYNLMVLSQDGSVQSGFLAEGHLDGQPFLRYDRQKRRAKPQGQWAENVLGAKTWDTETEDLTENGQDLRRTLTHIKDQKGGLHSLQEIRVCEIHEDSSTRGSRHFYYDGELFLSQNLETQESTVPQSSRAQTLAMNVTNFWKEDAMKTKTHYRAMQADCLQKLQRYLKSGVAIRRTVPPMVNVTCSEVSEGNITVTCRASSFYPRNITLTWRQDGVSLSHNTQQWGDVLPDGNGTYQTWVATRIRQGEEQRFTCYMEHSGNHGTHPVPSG
Procedure: (§1) Recombinant MICA*01, MICA*02, MICA*04, MICA*08, MICA*09, and MICB proteins were diluted to 1 μg/ml in 50 mM sodium carbonate buffer, pH 9.6, and coated onto high binding 96-well microplates (Corning #9018), 100 ng in 100 ul per well. The following morning, coated ELISA plates were washed three times with TBS-Tween-20, pH 7.4 and then blocked in SuperBlock T20 Blocking Buffer (Pierce #37536). After blocking, ELISA plates were washed once with TBS-T and incubated with serially diluted anti-MICA antibody (0-1 μg/ml) for approximately two hours at room temperature. Following the incubation, ELISA plates were washed three times with TBS-T and then incubated with Goat anti-Mouse IgG (H+L)-HRP conjugate (ThermoFisher Scientific #626520) for 45 minutes at room temperature with shaking (˜400 rpm). After the incubation, ELISA plates were washed three times with TBS-T and incubated with Super Sensitive Liquid Substrate TMB (Sigma #T4444), 100 ul per well, until color development was sufficient. The reaction was stopped with 1N sulfuric acid, 100 ul per well. Optical density (OD) values were measured at 450 nm using a microplate reader.

[1] = target: T2, Recombinant MICA*04 protein; assay: ELISA, coated MICA*04, OD 450 nm
T2 construct: Coated on ELISA plates
T2 sequence (Q29983 whole entry, looked up): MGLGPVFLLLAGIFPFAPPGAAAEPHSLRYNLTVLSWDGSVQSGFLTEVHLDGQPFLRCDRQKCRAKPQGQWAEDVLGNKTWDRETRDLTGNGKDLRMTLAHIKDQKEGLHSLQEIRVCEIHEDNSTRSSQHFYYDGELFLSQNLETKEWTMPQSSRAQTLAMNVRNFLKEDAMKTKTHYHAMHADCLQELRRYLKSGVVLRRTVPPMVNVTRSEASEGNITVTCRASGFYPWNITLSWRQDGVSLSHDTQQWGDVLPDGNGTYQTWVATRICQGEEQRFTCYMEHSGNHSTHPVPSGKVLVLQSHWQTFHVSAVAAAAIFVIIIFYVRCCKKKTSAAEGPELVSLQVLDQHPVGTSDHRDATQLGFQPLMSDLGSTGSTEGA
Procedure: as §1

[2] = target: T3, Recombinant MICA*08 protein; assay: ELISA, coated MICA*08, OD 450 nm
T3 construct: Coated on ELISA plates
T3 sequence (Q29983 whole entry, looked up): T2 sequence (Q29983 whole entry, looked up)
Procedure: as §1

[3] = target: T4, Recombinant MICA*09 protein; assay: ELISA, coated MICA*09, OD 450 nm
T4 construct: Coated on ELISA plates
T4 sequence (Q29983 whole entry, species assumed, looked up): T2 sequence (Q29983 whole entry, looked up)
Procedure: as §1

[4] = target: T5, Recombinant MICA*01 protein (Homo sapiens (Human), UniProt Q29983 24-307); assay: ELISA, coated MICA*01, OD 450 nm
T5 construct: Coated on ELISA plates
T5 sequence: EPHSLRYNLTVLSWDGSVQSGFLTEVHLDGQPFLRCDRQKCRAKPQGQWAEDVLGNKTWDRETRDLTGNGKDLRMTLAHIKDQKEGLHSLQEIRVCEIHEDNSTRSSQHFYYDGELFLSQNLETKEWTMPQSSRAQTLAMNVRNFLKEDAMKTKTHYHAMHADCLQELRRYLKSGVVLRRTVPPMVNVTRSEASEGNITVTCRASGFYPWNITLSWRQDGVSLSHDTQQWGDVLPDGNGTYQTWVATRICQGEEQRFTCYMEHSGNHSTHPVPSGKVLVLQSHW
Procedure: as §1

[5] = target: T6, Recombinant MICA*02 protein; assay: ELISA, coated MICA*02, OD 450 nm
T6 construct: Coated on ELISA plates
T6 sequence (Q29983 whole entry, species assumed, looked up): T2 sequence (Q29983 whole entry, looked up)
Procedure: as §1

EC50 (read off the curve) (Recombinant MICB protein): ~0.03 µg/mL | EC50 (read off the curve) [1]: ~0.03 µg/mL | EC50 (read off the curve) [2]: ~0.03 µg/mL | EC50 (read off the curve) [3]: ~0.03 µg/mL | EC50 (read off the curve) [4]: ~0.03 µg/mL | EC50 (read off the curve) [5]: ~0.03 µg/mL
B1: 3F9.E4 (antibody, V domains shown)
VH: EVQLQESGEGLVKPGGSLKLSCAASGFTFSNYAMSWVRQTPEKRLEWVAYISPGGDYIYYADTVKGRFTISRDNARNTLYLQMSSLKSEDTAMYYCTTDRRHYGSYAMDYWGQGISVTVSS
VL: DIVMTQAAPSVPVTPGESVSISCRSSKSLLHSNGNTYLYWFLQRPGQSPQLLIYRMSNLASGVPDRFSGSGSGTAFTLRISRVEAEDVGVYYCMQHLEYPFTFGSGTKLEIK
notes: the mAb was captured on anti-mouse IgG Fc biosensors and detected with goat anti-mouse IgG, so it is a mouse IgG; also called anti-MICA/B mAb; anti-MICA antibody

EC50 (read off the curve) (Recombinant MICB protein): ~0.03 µg/mL | EC50 (read off the curve) [3]: ~0.03 µg/mL | EC50 (read off the curve) [4]: ~0.03 µg/mL | EC50 (read off the curve) [5]: ~0.03 µg/mL
B2: 16F10.C12 (antibody, V domains shown)
VH: EVQLQESGPGLVAPSQSLSITCTVSGFSLTAFGVNWVRQPPGKGLEWLGMIWGDGNTDYNSTLRSRLSISKDNSKSQVFLKLNSLQTDDTARYFCARETYYGNYAGLGYWGQGTLVTVSA
VL: QIVLTQSPAIMSASIGERVTMTCTASSSVSSNYLHWYQQKPRSSPKLWIYTTSNLASGVPTRFSGSGSGTSYSLTISSMEAEDAATYYCHQFHRSPFTFGSGTKLEIK
notes: as for B1
